The target in the experiment is human CD3 on T cells (human) (UniProt P07766). As to the kind of experiment: FACS on Jurkat cells.

For the substance OKT3-hIgG1 (antibody), the affinity turned out to be 0.27 nM.

Source of the values: patent US20260152577A1.
